Residue numbers refer to the chain shown, from its start.
Tests used:
human CCR6 [1] = molecular target: T1, human CCR6 (human, UniProt P51684 1-374); assay: competition with 125I-MIP-3α for L1.2/hCCR6 transfectants, partially purified mAb
T1 construct: also called hCCR6; CD196
T1 sequence: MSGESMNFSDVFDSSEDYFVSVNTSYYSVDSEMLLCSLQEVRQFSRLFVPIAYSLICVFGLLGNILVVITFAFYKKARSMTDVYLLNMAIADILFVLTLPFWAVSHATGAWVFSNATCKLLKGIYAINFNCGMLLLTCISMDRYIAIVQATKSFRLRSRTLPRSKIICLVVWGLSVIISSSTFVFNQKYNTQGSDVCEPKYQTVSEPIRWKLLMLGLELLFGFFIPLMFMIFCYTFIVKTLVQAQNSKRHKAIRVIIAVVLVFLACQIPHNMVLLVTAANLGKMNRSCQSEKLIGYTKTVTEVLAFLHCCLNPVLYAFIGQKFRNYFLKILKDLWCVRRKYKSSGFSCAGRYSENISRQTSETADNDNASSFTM
Protocol: For ligand binding analysis, recombinant human CCL20 (MIP3α) (“ligand”) was obtained from Peprotech (New Jersey, USA). […] Cells were washed once in binding buffer (50 mM Hepes, pH 7.5, 1 mM CaCl, 5 mM MgCb, 0.5% BSA) and resuspended in binding buffer at a concentration of 2.5×10^6 cells/ml. Cold Purified monoclonal antibody or diluted hybridoma culture medium (cold competitor) was added to a 96-well plate followed by an equal volume (40 μl) binding buffer containing 1×10^5 cells. Cells and competitor were preincubated at room temperature for 15 min. Then radiolabeled ligand (final concentration 0.5-2 nM) was added to each well to give a final reaction volume of 120 μl. After a 60-min incubation at room temperature, the cells were washed three times with 1 ml of binding buffer containing 150 mM NaCl. The radioactivity (amount of bound label) in the cell pellets was counted in a TopCount liquid scintillation counter (Packard). Non-specific background binding was calculated by incubating cells […]. Samples were assayed in duplicate.
After incubation and washing the amount of label bound to cells was measured and the percentage inhibition determined by comparison to a control reaction with no added antibody (FIGS. 1 and 5).

hCXCR1 = molecular target: T2, hCXCR1 (human, UniProt P25024 1-350); assay: flow cytometry, hybridoma culture supernatant on L1.2/hCXCR1 transfectants
T2 construct: whole, on cells; also called hCXCRI; human CXCR1 transfected L1.2 cells
T2 sequence (looked up): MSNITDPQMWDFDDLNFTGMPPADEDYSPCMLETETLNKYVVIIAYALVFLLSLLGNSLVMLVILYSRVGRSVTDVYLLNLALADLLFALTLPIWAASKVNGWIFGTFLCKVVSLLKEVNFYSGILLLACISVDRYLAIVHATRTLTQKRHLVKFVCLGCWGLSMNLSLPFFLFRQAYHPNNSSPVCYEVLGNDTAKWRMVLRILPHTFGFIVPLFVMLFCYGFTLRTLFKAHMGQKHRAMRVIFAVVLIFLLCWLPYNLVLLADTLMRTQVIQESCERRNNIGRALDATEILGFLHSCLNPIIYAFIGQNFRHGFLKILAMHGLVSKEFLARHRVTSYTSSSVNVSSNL
Protocol: (§1) Monoclonal antibodies reactive with CCR6 were identified using human CCR6 transfected L1.2 cells, and untransfected L1.2 cells, or L1.2 cells transfected with unrelated or closely receptors such as hCXCRI, hCXCR2 or hCXCR3 using immunofluorescent staining and analysis using a FACSCalibur (BD Biosciences). Monoclonal antibody staining of cells was performed using standard procedures as described previously (Lee et al., 2006, Nat. Biotech. 24:1279-1284).
(§2) L1.2 transfectants expressing high levels of hCCR6 were used to immunize mice, and approximately 40 monoclonal antibodies were initially identified via flow cytometry that reacted with L1.2 cells transfected with hCCR6, of which approximately 10 reacted specifically with L1.2/hCCR6 transfectants but not with untransfected L1.2 cells or with L1.2 cells transfected with the closely related receptors hCXCRI, hCXCR2 or hCXCR3 (FIG. 3).

hCXCR3 = molecular target: T3, hCXCR3 (human, UniProt P49682 1-368); assay: flow cytometry, hybridoma culture supernatant on L1.2/hCXCR3 transfectants
T3 construct: whole, on cells; also called human CXCR3 transfected L1.2 cells
T3 sequence (looked up): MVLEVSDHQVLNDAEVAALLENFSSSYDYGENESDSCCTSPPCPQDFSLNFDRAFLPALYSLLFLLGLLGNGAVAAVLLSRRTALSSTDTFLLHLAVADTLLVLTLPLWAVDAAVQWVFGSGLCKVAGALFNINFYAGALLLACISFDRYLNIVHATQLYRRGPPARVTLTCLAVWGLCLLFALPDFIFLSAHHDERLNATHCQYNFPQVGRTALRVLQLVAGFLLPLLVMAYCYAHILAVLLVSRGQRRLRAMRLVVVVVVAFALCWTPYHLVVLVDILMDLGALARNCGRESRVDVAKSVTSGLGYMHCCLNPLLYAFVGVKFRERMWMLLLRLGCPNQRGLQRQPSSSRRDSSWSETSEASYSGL
Protocol: as §1, §2

hCXCR2 = molecular target: T4, hCXCR2 (human, UniProt P25025 1-360); assay: flow cytometry, hybridoma culture supernatant on L1.2/hCXCR2 transfectants
T4 construct: whole, on cells; also called human CXCR2 transfected L1.2 cells
T4 sequence (looked up): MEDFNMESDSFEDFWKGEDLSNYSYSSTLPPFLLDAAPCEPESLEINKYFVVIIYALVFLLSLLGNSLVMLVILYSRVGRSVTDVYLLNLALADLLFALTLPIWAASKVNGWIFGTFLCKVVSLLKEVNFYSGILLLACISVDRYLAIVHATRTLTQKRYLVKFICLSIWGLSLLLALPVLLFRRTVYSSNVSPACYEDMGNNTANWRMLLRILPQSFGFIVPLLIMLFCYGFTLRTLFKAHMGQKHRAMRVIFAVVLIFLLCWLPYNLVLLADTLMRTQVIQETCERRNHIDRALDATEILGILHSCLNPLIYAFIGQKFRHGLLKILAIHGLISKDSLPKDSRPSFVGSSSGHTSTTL
Protocol: as §1, §2

[2] = molecular target: T5, Peptide 1 (amino acid position 1-28 of the human CCR6) (human, biotinylated); assay: ELISA, biotinylated peptide on a streptavidin-coated plate
T5 construct: also called first 28 AA
T5 peptide: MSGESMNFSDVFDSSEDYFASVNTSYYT
Protocol: Two overlapping biotinylated peptides spanning the entire N-terminal region of human CCR6 were then synthesized and used in more defined anti-CCR6 mAb epitope mapping studies. Peptide 1 ([…], SEQ ID NO: 2) corresponds to amino acid position 1-28 of the human CCR6 and Peptide 2 ([…], SEQ ID NO: 101) corresponds to amino acid position 18-46 of the human CCR6. Briefly, multiwell plates were coated with streptavidin and washed before the biotinylated peptides were added to separate wells and incubated to facilitate binding of the peptides to the plate. Different anti-human CCR6 antibodies were then tested by adding the respective antibodies to the wells of the plate and incubating the plate. An isotype control and buffer only were included as negative controls. Following washing, appropriate conjugated antibodies were added and the plates were incubated. The plates were washed again and binding of the antibodies to the immobilised peptides was visualised (FIGS. 8 and 9).

human CCR6 [3] = molecular target: T1, human CCR6; assay: FACS binding assay on hCCR6 L1.2 cells, PE-conjugated anti-human Fc detection; 1-21/WT mutant
Protocol: (§3) Binding characteristics of hAB6 and mutants hAB6-IgG1 to human CCR6 was performed using a FACS binding assay using cell line expressing human CCR6 (L1.2 human CCR6). Approximately 2.5 10⁵ hCCR6 L1.2 cells/test were washed with FACS binding buffer (FBB) (PBS, 0.5% BSA, 0.1% NaN3 (pH 7.4)), and stained with hAB6 or hAB6 mutants (4.4 μg/ml) and serial 3-fold dilutions of antibodies. After 1 h on ice, the cells were washed with FBB (pH 7.4) and with an anti-human Fc antibody PE-conjugated (Jackson ImmunoResearch). After 30 min on ice, the cells were washed 3 times with FBB (pH 7.4), and resuspended in 1% formaldehyde, and analyzed using a FACS LSR flow cytometer (BD Immunocytometry Systems). EC₅₀ values were calculated using GraphPad Prism.

human CCR6 [4] = molecular target: T1, human CCR6; assay: FACS binding assay on hCCR6 L1.2 cells, PE-conjugated anti-human Fc detection; 1-21/3-3 mutant
Protocol: as §3

human CCR6 [5] = molecular target: T1, human CCR6; assay: FACS binding assay on hCCR6 L1.2 cells, PE-conjugated anti-human Fc detection; 1-23/3-3 mutant
Protocol: as §3

human CCR6 [6] = molecular target: T1, human CCR6; assay: FACS binding assay on hCCR6 L1.2 cells, PE-conjugated anti-human Fc detection; 1-23/WT mutant
Protocol: as §3

human CCR6 [7] = molecular target: T1, human CCR6; assay: FACS binding assay on hCCR6 L1.2 cells, PE-conjugated anti-human Fc detection; WT/3-3 mutant
Protocol: as §3

human CCR6 [8] = molecular target: T1, human CCR6; assay: FACS binding assay on hCCR6 L1.2 cells, PE-conjugated anti-human Fc detection; hAB6 (WT/WT)
Protocol: as §3

B1: AB1 (antibody, V domains shown)
VH: EVNLVESGGGLVQPGGSLKLSCAASGFTFSDYYMYWVRQTPEKRLEWVTYITNGDGRTYYSDTVRGRFTISRDNAKNTLYLQMSRLKSEDTAMYYCTSPPLGGAWFGYWGQGTLVTVS
VL: DVLMTQTPLSLPVSLGDQASISCRSSQSIVHSNGNTYLEWYLQKPGQSPKLLIYKVSKRFSGVPDRFSGSGSGTDFTLKISRVEAEDLGVYYCFQGSHVPLTFGAGTKLELKR
notes: Mouse hybridoma antibody, isotype IgG1; also called AB1-O17
- binding result (human CCR6 [1]): binds
- binding result (hCXCR1): no binding (tested: not given (culture supernatant))
- binding result (hCXCR3): no binding (tested: not given (culture supernatant))
- binding result (hCXCR2): no binding (tested: not given (culture supernatant))
- binding result [2]: binds

B2: hAB6 mutant 1-21/WT (antibody, V domains shown)
VH: EVQLVESGGGLVQPGGSLRLSCAASGFPFSDYYLYWVRQAPGKGLEWVAYITNGVGRTYYSDSVKGRFTISRDNAKNTLYLQMNSLRDEDTAVYYCTSPPLGGAWFGYWGQGTLVTVS
VL: DIVMTQSPLSLPVTPGEPASISCRSSQSIVHSNGNTYLEWYLQKPGQSPRLLIYKVSKRFSGVPDRFSGSGSGTDFTLKISRVEAEDVGVYYCFQGSHVPLTFGQGTKLEIKR
notes: IgG1 format
- EC50 (human CCR6 [3]): 0.46 nM

B3: hAB6 mutant 1-21/3-3 (antibody, V domains shown)
VH: B2 VH
VL: B2 VL with Q27R
notes: IgG1 format
- EC50 (human CCR6 [4]): 0.41 nM

B4: hAB6 mutant 1-23/3-3 (antibody, V domains shown)
VH: B2 VH with A23V
VL: B2 VL with Q27R
notes: IgG1 format
- EC50 (human CCR6 [5]): 1.2 nM

B5: hAB6 mutant 1-23/WT (antibody, V domains shown)
VH: B2 VH with A23V
VL: B2 VL
notes: IgG1 format
- EC50 (human CCR6 [6]): 0.39 nM

B6: hAB6 mutant WT/3-3 (antibody, V domains shown)
VH: B2 VH with G107A
VL: B2 VL with Q27R
notes: IgG1 format
- EC50 (human CCR6 [7]): 3.2 nM

B7: humanized AB6 mAb (antibody, V domains shown)
VH: B2 VH with G107A
VL: B2 VL
notes: also called hAB6; hAB6-IgG1
- EC50 (human CCR6 [8]): 3.4 nM

— patent US20240109971A1 (MONASH UNIVERSITY, published 2024)
